Laboratory results from the DeepSol protein solubility set.

test: soluble on expression in E. coli; label from the status in PepcDB or PDB records

Row | Sequence | soluble on expression in E. coli
1 | MSLADRLLDIKRIYHEPGIERFPRARAVLERYPDAERVEVLSHQAIPGLYGNEGNVEDWVRNKREVMVIGEKKSLSARRNERSSDWIAPSTANGCAMACSYCYVPRRKGYANPITVFANIEKITGYLERHAARQGAKPEPNQCDPIDWVYDIGENSDCSADAMVSDNVRDLVDLFGRIPNAKASFATKLVNRDLLTYEPRGGTRVRFSLMPAETSRLVDVRTSKISDRIAAIDDFVEAGYEVHLNFSPVIVHENWIADWADLLEQIADQTNDRTRRQLAAEVIFLTHNEGLHDVNLGWHPKGEELLWRPDLQQLKRSQSGQWNVRYKSPWKGKWVQQMTDLVADRLPDCRIRYAEGHHHHHH | not soluble
2 | MGSDKIHHHHHHYPEPVLNPESCTSIMVGKKASADGSVMTSHTCDSNYRTWMDIVPSASYDHDTTTTVYTGRMHTEYAEGTRGMIAKGTLPEARSTYQFLNTAYPCLNEKQLGIGETTITGRKALVNKKGMFMIEELQRIALQRCTTARDAIRLMGELIEKYGYGDWGECLTIADPKEVWHFEVFGEGPDKIGGVWAAIRIPDDHVGVSANIPRISKVDPSDKENCMASANVFEVAKRMGFWDGKKPFRFWEAYGGGNYSGELKSFSIREFFILNKLAPSLHLSYDAEELPISVKPEKPVDVTDVMALLSETYEGTEYDMTKNLKVAVKKKDSNETDTIISPVANPWMTTDMVNMLNGLRPDAVKRYRLVAVPQCSYSTVIQLRDWLPDAVGGVVWMAYDNPGQSPRIPIFCGTKDLPACFKVCGQHRYREDAAVWAFRRANKLATVRWGATKDRMKASIAHFTEKGQTELPFVESRYKEILTQQGEEAAKEYLTGYTADFAGATMLRWREMGDSFWTQFERGF | not soluble
3 | GSHMEAPILYEDPPEKLTSKDGRAANMKITSWNVDGLRAWVKKNGLDWVRKEDPDILCLQETKCAEKALPADITAMPEYPHKYWAGSEDKEGYSGVAMLCKTEPLNVTYGIGKEEHDKEGRVITAEFPDFFLVTAYVPNASRGLVRLDYRKTWDVDFRAYLCGLDARKPLVLCGDLNVAHQEIDLKNPKGNRKNAGFTPEEREGFTQLLEAGFTDSFRELYPDQAYAYTFWTYMMNARSKNVGWRLDYFVLSSALLPGLCDSKIRNTAMGSDHCPITLFLAV | soluble
4 | MSIVSLAKQSGLSVSSISAYENNKRQPKIESLQKISKVLGVSSAYLNGMSEEKNILNVNSQSLKNNTIDIDVIGFLLNVRSTYPGKVPIFIQDVLAGAPIYIDDNGNKLDAKKRKLLITFLKTLLN | not soluble
5 | MIKLVAFDLDGTIGNTLPMCIQAFKKATQPYIGHELSDEEMVHTFGLNEEGMIGCVVDEPYRQQALNDFYVIYKELHQEMCPTPFEGIRELIALLKQKGIIVALITGKGINSCDITLKQFNMKDSFAKVITGNAERNIKSEALKELLHDYHLAANEIVYVGDALSDITECRKANVMCLSAAWSIPQNEVTALENSNPKNVFYSISSLFKYL | not soluble
6 | LVLQLQINRNPVLFDFNLQLKTNNFANQTSFDELFNEKTNPLNWQFFSKLKVNHLVYEGNDITQLANTLLQSQFNVLQLDLNKSIYRLNLNAMAQRFEHDWVQPLYAKRTQAKIAY | not soluble
7 | VAKRLDLTDVNIYYGSFHAVADVSLAILPRSVTAFIGPSGCGKTTVLRTLNRMHEVIPGARVEGAVLLDDQDIYAPGIDPVGVRRAIGMVFQRPNPFPAMSIRNNVVAGLKLQGVRNRKVLDDTAESSLRGANLWDEVKDRLDKPGGGLSGGQQQRLCIARAIAVQPDVLLMDEPCSSLDPISTMAIEDLISELKQQYTIVIVTHNMQQAARVSDQTAFFNLEAVGKPGRLVEIASTEKIFSNPNQKATEDYISGRFG | not soluble
8 | MVNLTRIYTRTGDKGTTALGDMSRVPKTDLRISAYADANEANAVIGTAIALGGLPEEVVKVLVRVQNDLFDVGADLSTPVVENPEYPPLRVEQFYVDKLEADCDRYLAEVEKLRSFILPGGTAGAALLHQACTVVRRAERSTWAALEAHGETMNPLTATYLNRLSDLLFILARVANKEVGDVLWVPGGERLEHHHHHH | soluble
9 | MMGCLPTKQVGRSTHSLNPREAVALAAETSFTVNEVEALYDLFRKLSNSIIKDGLIHKEEFHLALFRNKKTNLFVDRVFDLFDQKGNGVIEFDEFVRSLSVFHPDAPEEQKAGFAFKLYDLRQTGFIERHELKEMVLALLDESDLNITSDAVEMIVDRTFDQADTKGDERIDQEEWNEFVKNNPYVLRNMTLPYLKDLTMVFPSFVIHSEVSEADMVA | soluble
10 | MAKTLGLHILADLYGVDADKIDRVEDIRELLEGAVKYANLTKISSHYYQFQPHGATGVVLLAESHISIHTWPEHGLATVDVYTCGDPSKAYRAMDYIITQLNPKRIDKQVHERGIVEEESNQSEAEKLRSILLQV | soluble
11 | MNSVSEPVPSHGKKPPKNVLAEHGGWKILRILLVSTYKDFRNERRAVLDLVENKLQPIASEKHVILQVEDFSWGSKAHLEEASSLYLIERLCREAVSSSSYFYLHFLGECSGYILDPNFTDQSFLRQHSISTGQSFSEVFLQLSGLQNEKSLFLYRNPSFHQELPFNVTHFIDGPVNRERAKYLTTMVRGEAPASKFIEYSVRTSGINNIHFKHIMFDELSGITKPIEAMVGKYLEKLPDGEAGIPSVEEFMNEYYSQLHVNQTIMSKIEYNLKSHKSILLVGDYCTGKTSILHRIQWKYRDAVIVQAKEKMSAIELRRAIEAKTNVILHDVEQKVVRYLLVDDIHLNFCENFKVKITLSQILQNFNCFAQIFSLLKQIFINFFQASKEAQQYLIGNEELVIVATSRKKKLEVDMNRIIIPHLEPEDILDELSFWLNGGEKEKSGVPSVKASNILKMSQQKRRRSIGTVEDGHQPDENIGWNSLKCRVIGTLGRIGSSDEKCAQLAQLSTLSVVEADMCLMESDGKGHLLIATLCYLTIVESGLNEMELRSLLILEYNLLPIAIRRNYKNLPFDYCPDEFGTTSCTQTLPLRWYFVLHRLGHLFMKIDGDSNHFVLPSACRRVVFKKYLKHPHNLEHFKKNFKEFLTNFSGKEWNRNRQIKMYL | not soluble
12 | MGSDKIHHHHHHMSIVGNVENLINGVGELWNKYVKHEFILKMRDGSLPLDIFRYYLIQDGKYVEDMLRALLIASSKGPIDKVTKILNLVFSSRDKGLETHGKLYSKLDISRDVIVKTGYNLINYAYTRHLYYYANLDWNKFLVAWTPCMFGYSIVGDYVIDSPNEVYKTWASFYASTEYKKRIEAILYALDEVSITEDLLNIFINSVRFEIGFWDASLRKDPTVY | not soluble
13 | MIKQTIVALLLSVGASSVFAAGTVKVFSNGSSEAKTLTGAEHLIDLVGQPRLANSWWPGAVISEELATAAALRQQQALLTRLAEQGADSSADDAAAINALRQQIQALKVTGRQKINLDPDIVRVAERGNPPLQGNYTLWVGPPPSTVTLFGLISRPGKQPFTPGRDVASYLSDQSLLSGADRSYAWVVYPDGRTQKAPVAYWNKRHVEPMPGSIIYVGLADSVWSETPDALNADILQTLTQRIPQ | not soluble
14 | MLPFLPEPSLSYTQQNRTAVLLLNLGTPDAPTAQAVRPYLKSFLTDRRIVELPKWLWYPILHGLVLTFRPKKSAHAYEKIWFKEGSPLEVYTARQAAALAERMPDLIVRHAMTYGNPSIADVLAELKSQGVGRLLAIPLYPQYAASSSGAAVDKVCEQLLLQRNQMSVRTISRFYDDAGYIDAMKNHILRYWAEHGRGKKLMLSFHGVPQKHYDLGDPYPDECRHTAKLLAEALELTEDEYTVSFQSQFGRAKWVTPSTQDLFGKLPKQGVTELDVFCPGFLADCLETMEEIALMGREQFYEAGGKNYRYIPCLNDNPDWIDALVALAEENLGGWR | not soluble
15 | MGEPFGGPLMGRLVSLLPSATDLIFELGLGEQLLGVSHCCDHPGAASLPVLTRSIIGSDLPQAEIDRAVSEAVRAGRALYTVDGPLLDRLRPDLVVTQGVCEVCAVTPGTVAEAVRFLPGCLPAEQVLSLEGKTFAGILADLRALARAAGVRERGEALAAESERRWNAIRPVGVQVPEPPRVLTLEWVDPPFYGGHWVPEQVAQAGGKDVLGHAGRDSGRTSWEDVVQLDPDVIVVMCCGYGLSDNAEFARQVLSHPELRAVRAGQVWGVDANAHFSRPSLGVVRGAEVLAALLRGEESAGESVRVRAELEHHHHHH | not soluble
16 | MLSIISKYLLIASYICSYLEPRYDASIFSRKTRIIQGRAAYGRRKKKEVNPRYLQPSLFAIERLLAIFQAIFPIQGKAESGSLSALREESLMKANIEVFQNLSELHTLKLIATTMNKNIDYLSPKVRWKVNVPWEIIKEISESVHFNISDYFSD | not soluble
17 | ADSVFISGHKNADMDSLGAALGIWRMSRLHDLTAYIIIDDQNLQRDVKLVIGKINDEVDAANEKLKNQATDGKTPKLIEQPFITEKKALSLATDQSLLVLVDHSRPSISAAGQLLEKLKSSLIVIDHHRIADESFSEKPILFYVEQYASSTCELVTELLGYEDRRKSPLTKVEATALLGGIQLDTKGFTSHSGSRTFDAASFLRAAGADAQLLSSFGKESK | not soluble
18 | MAHHHHHHMQKHNIKLNQNQDISQLFHDEVPLFDNSITSKDKEVIETLSEIYSIVITLDHVEKAYLKDSIDDTQYTNTVDKLLKQFKVYLNSQNKEEINKHFQSIEAFCDTYNITASNAITRLERGIPITAEHAISTTTSAPSGDNKQSSSSDKK | soluble
19 | GMEKLNFGIPEWAFEFHGHKCPYMPMGYRAGSYALKIAGLEKEKDHRTYLLSEMSPEDMNGCFNDGAQAATGCTYGKGLFSLLGYGKLALILYRPGRKAIRVHVRNSFMDELSTRASDFFRYRKQGYEPSEIPAGAIDPVLEWISSLEDEEIFEYREIDGFTFEPVKKNGAKVRCDVCGEYTYEADAKLLNGKPVCKPDYYGKK | soluble
20 | MAHHHHHHMRPHTPAKVATTASDGATTTKTTSHPVLLGCGLNWASFVASHPFEVKELTSVLVGDGSDDDGVPEERDALVQAQLPVASVVTSGATLERVFTEAMVCASARAEVARKVQHIATVWCLHPSSEYVATLCWPMEGGESASTTTAVLKVQTEGGRAPLDLRAVSLHVVDRGSLVFHPEFTRCILAQGAERFMYYVPPNPLEATTALPFMRGLWYNGLFSLLELLRIGPQHVVMLFVLPNGDTRYTLDLAPESPAVPAPSSTHQQGSGALGSAASRNATASLYPWRRQSKVRRVIRSGAYVVVVRDDTAGVVESLQRACSYHGQNKRSTWLNDIFIHLMGQCSRRDILCSADAAASQPAEADKANDVRLLCIELVEKATGEVMAGCCGMAVGCAYHDYTMYTLRQTKDGLGTFLTKLIGEALQRCGYTLWYWGFCVEYMRHFERHFGAVDMPRDVFYRRWSAARDAAPECSIDAYLRSHKGMVPYYEGTSALVKSKP | not soluble
21 | MYPSIKETMRVQLSMEGSVNYHAFKCTGKGEGKPYEGTQSLNITITEGGPLPFAFDILSHAFQYGIKVFAKYPKEIPDFFKQSLPGGFSWERVSTYEDGGVLSATQETSLQGDCIICKVKVLGTNFPANGPVMQKKTCGWEPSTETVIPRDGGLLLRDTPALMLADGGHLSCFMETTYKSKKEVKLPELHFHHLRMEKLNISDDWKTVEQHESVVASYSQVPSKLGHN | soluble
22 | SIERLGYLGFAVKDVPAWDHFLTKSVGLMAAGSAGDAALYRADQRAWRIAVQPGELDDLAYAGLEVDDAAALERMADKLRQAGVAFTRGDEALMQQRKVMGLLCLQDPFGLPLEIYYGPAEIFHEPFLPSAPVSGFVTGDQGIGAFVRCVPDTAKAMAFYTEVLGFVLSDIIDIQMGPETSVPAHFLHCNGRHHTIALAAFPIPKRIHHFMLQANTIDDVGYAFDRLDAAGRITSLLGRHTNDQTLSFYADTPSPMIEVEFGWGPRTVDSSWTVARHSRTAMWGHKSVRGQR | soluble
